Experimental findings from patent US20180169257A1 (Seagen, published 2018) are described below.

The chains are these.
T1: human NTB-A (human, UniProt Q96DU3 22-332)
T1 construct: Endogenous NTB-A on antigen-positive Ramos cells (also on MM.1R, WIL2-S and Raji cells and normal human T and B lymphocytes); also called SLAMF6; human NTB-A isoform-1
T1 sequence: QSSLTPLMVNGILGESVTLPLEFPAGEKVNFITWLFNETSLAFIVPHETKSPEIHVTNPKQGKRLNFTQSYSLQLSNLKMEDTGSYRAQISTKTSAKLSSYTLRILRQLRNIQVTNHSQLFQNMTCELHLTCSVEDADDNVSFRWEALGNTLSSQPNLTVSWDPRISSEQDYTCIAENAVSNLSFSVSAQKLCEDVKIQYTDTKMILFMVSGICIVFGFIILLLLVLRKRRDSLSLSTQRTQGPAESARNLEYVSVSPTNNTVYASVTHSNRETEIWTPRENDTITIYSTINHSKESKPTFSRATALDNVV

B1: murine 20F3 antibody (antibody, mouse IgG1, V domains shown)
VH: QIQLVQSGPELKKPGETVKISCKASGYTFTNYGMNWVKQAPGKDLKWMGWINTYSGEPRYADDFKGRFAFSLEKSANTAYLQINNLKNEDMATYFCARDYGRWYFDVWGTGTTVTVSS
VL: QIVLSQSPAILSASPGEKVTMTCRASSSVSHMHWYQQKPGSSPKPWIYATSNLASGVPARFSGSGSGTSYSLTISRVEAEDAATYYCQQWSSTPRTFGGGTKLEIKR
notes: also called mouse 20F3
B2: humanized 20F3 HCLB (antibody, V domains shown)
VH: QIQLVQSGSELKKPGASVKVSCKASGYTFTNYGMNWVRQAPGQDLEWMGWINTYSGEPRYADDFKGRFVFSLDKSVNTAYLQISSLKAEDTAVYYCARDYGRWYFDVWGQGTTVTVSS
VL: EIVLTQSPATLSLSPGERATLSCRASSSVSHMHWYQQKPGQAPRPWIYATSNLASGIPARFSGSGSGTDYTLTISSLEPEDFAVYYCQQWSSTPRTFGGGTKVEIKR
notes: Humanized heavy chain HC paired with humanized light chain LB
B3: humanized 20F3 HCLD (antibody, V domains shown)
VH: QIQLVQSGSELKKPGASVKVSCKASGYTFTNYGMNWVRQAPGQDLEWMGWINTYSGEPRYADDFKGRFVFSLDKSVNTAYLQISSLKAEDTAVYYCARDYGRWYFDVWGQGTTVTVSS
VL: QIVLSQSPATLSLSPGERATMSCRASSSVSHMHWYQQKPGQAPRPWIYATSNLASGVPARFSGSGSGTDYTLTISSLEPEDFAVYYCQQWSSTPRTFGGGTKVEIKR
notes: Humanized heavy chain HC paired with humanized light chain LD
B4: humanized 20F3 HALA (antibody, V domains shown)
VH: QVQLVQSGSELKKPGASVKVSCKASGYTFTNYGMNWVRQAPGQGLEWMGWINTYSGEPRYADDFKGRFVFSLDTSVSTAYLQISSLKAEDTAVYYCARDYGRWYFDVWGQGTTVTVSS
VL: EIVLTQSPATLSLSPGERATLSCRASSSVSHMHWYQQKPGQAPRLLIYATSNLASGIPARFSGSGSGTDFTLTISSLEPEDFAVYYCQQWSSTPRTFGGGTKVEIKR
notes: Humanized heavy chain HA paired with humanized light chain LA
B5: humanized 20F3 HELA (antibody, V domains shown)
VH: QIQLVQSGSELKKPGASVKVSCKASGYTFTNYGMNWVKQAPGQDLKWMGWINTYSGEPRYADDFKGRFAFSLDKSVNTAYLQISSLKAEDTAVYFCARDYGRWYFDVWGQGTTVTVSS
VL: EIVLTQSPATLSLSPGERATLSCRASSSVSHMHWYQQKPGQAPRLLIYATSNLASGIPARFSGSGSGTDFTLTISSLEPEDFAVYYCQQWSSTPRTFGGGTKVEIKR
notes: Humanized heavy chain HE paired with humanized light chain LA
B6: humanized 20F3 HDLB (antibody, V domains shown)
VH: QIQLVQSGSELKKPGASVKVSCKASGYTFTNYGMNWVRQAPGQDLKWMGWINTYSGEPRYADDFKGRFVFSLDKSVNTAYLQISSLKAEDTAVYYCARDYGRWYFDVWGQGTTVTVSS
VL: EIVLTQSPATLSLSPGERATLSCRASSSVSHMHWYQQKPGQAPRPWIYATSNLASGIPARFSGSGSGTDYTLTISSLEPEDFAVYYCQQWSSTPRTFGGGTKVEIKR
notes: Humanized heavy chain HD paired with humanized light chain LB
B7: humanized 20F3 HDLA (antibody, V domains shown)
VH: QIQLVQSGSELKKPGASVKVSCKASGYTFTNYGMNWVRQAPGQDLKWMGWINTYSGEPRYADDFKGRFVFSLDKSVNTAYLQISSLKAEDTAVYYCARDYGRWYFDVWGQGTTVTVSS
VL: EIVLTQSPATLSLSPGERATLSCRASSSVSHMHWYQQKPGQAPRLLIYATSNLASGIPARFSGSGSGTDFTLTISSLEPEDFAVYYCQQWSSTPRTFGGGTKVEIKR
notes: Humanized heavy chain HD paired with humanized light chain LA
B8: humanized 20F3 HBLA (antibody, V domains shown)
VH: QIQLVQSGSELKKPGASVKVSCKASGYTFTNYGMNWVRQAPGQGLEWMGWINTYSGEPRYADDFKGRFVFSLDKSVSTAYLQISSLKAEDTAVYYCARDYGRWYFDVWGQGTTVTVSS
VL: EIVLTQSPATLSLSPGERATLSCRASSSVSHMHWYQQKPGQAPRLLIYATSNLASGIPARFSGSGSGTDFTLTISSLEPEDFAVYYCQQWSSTPRTFGGGTKVEIKR
notes: Humanized heavy chain HB paired with humanized light chain LA
B9: humanized 20F3 HALB (antibody, V domains shown)
VH: QVQLVQSGSELKKPGASVKVSCKASGYTFTNYGMNWVRQAPGQGLEWMGWINTYSGEPRYADDFKGRFVFSLDTSVSTAYLQISSLKAEDTAVYYCARDYGRWYFDVWGQGTTVTVSS
VL: EIVLTQSPATLSLSPGERATLSCRASSSVSHMHWYQQKPGQAPRPWIYATSNLASGIPARFSGSGSGTDYTLTISSLEPEDFAVYYCQQWSSTPRTFGGGTKVEIKR
notes: Humanized heavy chain HA paired with humanized light chain LB
B10: humanized 20F3 HCLA (antibody, V domains shown)
VH: QIQLVQSGSELKKPGASVKVSCKASGYTFTNYGMNWVRQAPGQDLEWMGWINTYSGEPRYADDFKGRFVFSLDKSVNTAYLQISSLKAEDTAVYYCARDYGRWYFDVWGQGTTVTVSS
VL: EIVLTQSPATLSLSPGERATLSCRASSSVSHMHWYQQKPGQAPRLLIYATSNLASGIPARFSGSGSGTDFTLTISSLEPEDFAVYYCQQWSSTPRTFGGGTKVEIKR
notes: Humanized heavy chain HC paired with humanized light chain LA
B11: humanized 20F3 HBLC (antibody, V domains shown)
VH: QIQLVQSGSELKKPGASVKVSCKASGYTFTNYGMNWVRQAPGQGLEWMGWINTYSGEPRYADDFKGRFVFSLDKSVSTAYLQISSLKAEDTAVYYCARDYGRWYFDVWGQGTTVTVSS
VL: QIVLSQSPATLSLSPGERATLSCRASSSVSHMHWYQQKPGQAPRPWIYATSNLASGIPARFSGSGSGTDYTLTISSLEPEDFAVYYCQQWSSTPRTFGGGTKVEIKR
notes: Humanized heavy chain HB paired with humanized light chain LC
B12: humanized 20F3 HELD (antibody, V domains shown)
VH: QIQLVQSGSELKKPGASVKVSCKASGYTFTNYGMNWVKQAPGQDLKWMGWINTYSGEPRYADDFKGRFAFSLDKSVNTAYLQISSLKAEDTAVYFCARDYGRWYFDVWGQGTTVTVSS
VL: QIVLSQSPATLSLSPGERATMSCRASSSVSHMHWYQQKPGQAPRPWIYATSNLASGVPARFSGSGSGTDYTLTISSLEPEDFAVYYCQQWSSTPRTFGGGTKVEIKR
notes: Humanized heavy chain HE paired with humanized light chain LD
B13: humanized 20F3 HELB (antibody, V domains shown)
VH: QIQLVQSGSELKKPGASVKVSCKASGYTFTNYGMNWVKQAPGQDLKWMGWINTYSGEPRYADDFKGRFAFSLDKSVNTAYLQISSLKAEDTAVYFCARDYGRWYFDVWGQGTTVTVSS
VL: EIVLTQSPATLSLSPGERATLSCRASSSVSHMHWYQQKPGQAPRPWIYATSNLASGIPARFSGSGSGTDYTLTISSLEPEDFAVYYCQQWSSTPRTFGGGTKVEIKR
notes: Humanized heavy chain HE paired with humanized light chain LB
B14: humanized 20F3 HDLC (antibody, V domains shown)
VH: QIQLVQSGSELKKPGASVKVSCKASGYTFTNYGMNWVRQAPGQDLKWMGWINTYSGEPRYADDFKGRFVFSLDKSVNTAYLQISSLKAEDTAVYYCARDYGRWYFDVWGQGTTVTVSS
VL: QIVLSQSPATLSLSPGERATLSCRASSSVSHMHWYQQKPGQAPRPWIYATSNLASGIPARFSGSGSGTDYTLTISSLEPEDFAVYYCQQWSSTPRTFGGGTKVEIKR
notes: Humanized heavy chain HD paired with humanized light chain LC
B15: humanized 20F3 HALD (antibody, V domains shown)
VH: QVQLVQSGSELKKPGASVKVSCKASGYTFTNYGMNWVRQAPGQGLEWMGWINTYSGEPRYADDFKGRFVFSLDTSVSTAYLQISSLKAEDTAVYYCARDYGRWYFDVWGQGTTVTVSS
VL: QIVLSQSPATLSLSPGERATMSCRASSSVSHMHWYQQKPGQAPRPWIYATSNLASGVPARFSGSGSGTDYTLTISSLEPEDFAVYYCQQWSSTPRTFGGGTKVEIKR
notes: Humanized heavy chain HA paired with humanized light chain LD
B16: humanized 20F3 HELC (antibody, V domains shown)
VH: QIQLVQSGSELKKPGASVKVSCKASGYTFTNYGMNWVKQAPGQDLKWMGWINTYSGEPRYADDFKGRFAFSLDKSVNTAYLQISSLKAEDTAVYFCARDYGRWYFDVWGQGTTVTVSS
VL: QIVLSQSPATLSLSPGERATLSCRASSSVSHMHWYQQKPGQAPRPWIYATSNLASGIPARFSGSGSGTDYTLTISSLEPEDFAVYYCQQWSSTPRTFGGGTKVEIKR
notes: Humanized heavy chain HE paired with humanized light chain LC
B17: humanized 20F3 HBLB (antibody, V domains shown)
VH: QIQLVQSGSELKKPGASVKVSCKASGYTFTNYGMNWVRQAPGQGLEWMGWINTYSGEPRYADDFKGRFVFSLDKSVSTAYLQISSLKAEDTAVYYCARDYGRWYFDVWGQGTTVTVSS
VL: EIVLTQSPATLSLSPGERATLSCRASSSVSHMHWYQQKPGQAPRPWIYATSNLASGIPARFSGSGSGTDYTLTISSLEPEDFAVYYCQQWSSTPRTFGGGTKVEIKR
notes: Humanized heavy chain HB paired with humanized light chain LB
B18: humanized 20F3 HCLC (antibody, V domains shown)
VH: QIQLVQSGSELKKPGASVKVSCKASGYTFTNYGMNWVRQAPGQDLEWMGWINTYSGEPRYADDFKGRFVFSLDKSVNTAYLQISSLKAEDTAVYYCARDYGRWYFDVWGQGTTVTVSS
VL: QIVLSQSPATLSLSPGERATLSCRASSSVSHMHWYQQKPGQAPRPWIYATSNLASGIPARFSGSGSGTDYTLTISSLEPEDFAVYYCQQWSSTPRTFGGGTKVEIKR
notes: Humanized heavy chain HC paired with humanized light chain LC
B19: humanized 20F3 HALC (antibody, V domains shown)
VH: QVQLVQSGSELKKPGASVKVSCKASGYTFTNYGMNWVRQAPGQGLEWMGWINTYSGEPRYADDFKGRFVFSLDTSVSTAYLQISSLKAEDTAVYYCARDYGRWYFDVWGQGTTVTVSS
VL: QIVLSQSPATLSLSPGERATLSCRASSSVSHMHWYQQKPGQAPRPWIYATSNLASGIPARFSGSGSGTDYTLTISSLEPEDFAVYYCQQWSSTPRTFGGGTKVEIKR
notes: Humanized heavy chain HA paired with humanized light chain LC
B20: humanized 20F3 HBLD (antibody, V domains shown)
VH: QIQLVQSGSELKKPGASVKVSCKASGYTFTNYGMNWVRQAPGQGLEWMGWINTYSGEPRYADDFKGRFVFSLDKSVSTAYLQISSLKAEDTAVYYCARDYGRWYFDVWGQGTTVTVSS
VL: QIVLSQSPATLSLSPGERATMSCRASSSVSHMHWYQQKPGQAPRPWIYATSNLASGVPARFSGSGSGTDYTLTISSLEPEDFAVYYCQQWSSTPRTFGGGTKVEIKR
notes: Humanized heavy chain HB paired with humanized light chain LD

The target of the test is T1, human NTB-A. Briefly: competition flow cytometry on Ramos cells; competitor 5 nM mouse 20F3-Alexa Fluor 647. The protocol: Antigen positive Ramos cells were plated at 1×10⁵ cells per well in a 96 well V-bottom plate (Thermo Scientific, Rochester, N.Y.). Fifty-fold serial dilutions of antibodies were prepared in FACs buffer (PBS+2% fetal bovine serum) and were added to the cells in duplicate. The antibody solutions were incubated with cells for 1 hour on ice, protected from light. The cells were washed twice with FACs buffer and analyzed on the LSRII flow cytometer (BD BioSciences, San Jose, Calif.). EC50 values were determined with GraphPad Prism software (La Jolla, Calif.).
In the case of B1, the response was half-maximal at 2 nM (EC50). For the molecule B2, it took 5 nM to reach a half-maximal effect (EC50). As for B3, the figure is 5 nM; as for B4, 147 nM; as for B5, 31 nM. As for B6, the figure is 3 nM; as for B7, 15 nM. The molecule B8 gave an EC50 of 71 nM.

On to B9, for which the response was half-maximal at 12 nM (EC50). As for B10, the EC50 was determined as 25 nM. The value for B11 was 12 nM.

Molecule B12 showed an EC50 of 2 nM. The value for B13 was 4 nM. Turning to B14, the response was half-maximal at 6 nM (EC50). The molecule B15 registered an EC50 of 12 nM.

The molecule B16 showed an EC50 of 10 nM. On to B17, for which the response was half-maximal at 6 nM (EC50).

For B18, the midpoint of the response, the EC50, lay at 8 nM. Molecule B19 yielded an EC50 of 27 nM. As to B20, the EC50 amounted to 4 nM.
